According to patent EP0920630B1:

Target: PrPBPs (prion protein binding proteins) on the surface of G8 cells (mouse muscle cell line)
Experiment: Scatchard analysis, bound AP activity on G8 cells

Substance “PrP-AP fusion protein (murine PrP fused to secreted human placental heat-stable alkaline phosphatase) (from UniProt P04925 23-229; P05187 23-511)” has a Kd of 1.48 nM and a PrP-AP binding sites (Bmax) (binding sites) of 100000.
